Measured values published in patent US20230277593A1.
Values belong to the binder of their own block, whether it stands above or below them.

What was measured:
[1] = target: HLA-A*02 on target cells (human); assay: cell-based or functional assay
[2] = target: Epidermal Growth Factor Receptor (EGFR) on target cells (human), P00533; assay: cell-based or functional assay

Mouse Blocker EC50 (ng), with activator CT486; HLA-A*02 mRNA titrated into target cells [1]: 4700 ng
Mouse Blocker EC50 (ng), with activator CT487; HLA-A*02 mRNA titrated into target cells [1]: 3500 ng
Mouse Blocker EC50 (ng), with activator CT488; HLA-A*02 mRNA titrated into target cells [1]: 4700 ng
Mouse Blocker EC50 (ng), with activator CT489; HLA-A*02 mRNA titrated into target cells [1]: 4200 ng
selectivity ratio (mouse blocker C1765 paired with CT486) [1]: 15.7
selectivity ratio (mouse blocker C1765 paired with CT487, first mention) [1]: 18.4
selectivity ratio (mouse blocker C1765 paired with CT487 as printed, second mention) [1]: 21.2
selectivity ratio (mouse blocker C1765 paired with CT489) [1]: 21.6
shift of CAR EMAX (Jurkat NFAT-luciferase, with EGFR CAR CT479, HeLa target cells) [1]: > 5 fold
B1: HLA-A*02 PA2.1 scFv LIR1 inhibitor (C1765) (scFv, part only; not given: LIR-1 hinge, transmembrane and intracellular, part only)
scFv, part: DVLMTQTPLSLPVSLGDQASISCRSSQSIVHSNGNTYLEWYLQKPGQSPKLLIYKVSNRFSGVPDRFSGSGSGTDFTLKISRVEAEDLGVYYCFQGSHVPRTSGGGTKLEIKGGGGSGGGGSGGGGSGGQVQLQQSGPELVKPGASVRISCKASGYTFTSYHIHWVKQRPGQGLEWIGWIYPGNVNTEYNEKFKGKATLTADKSSSTAYMHLSSLTSEDSAVYFCAREEITYAMDYWGQGTSVTVSS

Human Blocker EC50 (ng), with activator CT486; HLA-A*02 mRNA titrated into target cells [1]: 4000 ng
Human Blocker EC50 (ng), with activator CT487; HLA-A*02 mRNA titrated into target cells [1]: 2900 ng
Human Blocker EC50 (ng), with activator CT488; HLA-A*02 mRNA titrated into target cells [1]: 3500 ng
Human Blocker EC50 (ng), with activator CT489; HLA-A*02 mRNA titrated into target cells [1]: 3200 ng
selectivity ratio (humanized blocker C2162 paired with CT486) [1]: 17
selectivity ratio (humanized blocker C2162 paired with CT487, first mention) [1]: 5
selectivity ratio (humanized blocker C2162 paired with CT487 as printed, second mention) [1]: 5
selectivity ratio (humanized blocker C2162 paired with CT489) [1]: 24.2
B2: HLA-A*02 PA2.1 scFv LIR1 inhibitor (C2162) (scFv, part only; not given: LIR-1 hinge, transmembrane and intracellular, part only)
scFv, part: QVQLVQSGAEVKKPGSSVKVSCKASGYTFTSYHIHWVRQAPGQGLEWIGWIYPGNVNTEYNEKFKGKATITADESTNTAYMELSSLRSEDTAVYYCAREEITYAMDYWGQGTLVTVSSGGGGSGGGGSGGGGSGGDIQMTQSPSTLSASVGDRVTITCRSSQSIVHSNGNTYLEWYQQKPGKAPKLLIYKVSNRFSGVPARFSGSGSGTEFTLTISSLQPDDFATYYCFQGSHVPRTFGQGTKVEVK

Activator EC50 (ng); EGFR mRNA titrated into EGFR negative target cells [2]: 3500 ng
B3: CT-487 EGFR scFv CAR activator (scFv, not shown: small tags and cut ends)
scFv: QVQLVQSGAEVKKPGASVKVSCKASGYTFTSHWMHWVRQAPGQGLEWIGEFNPSNGRTNYNEKFKSKATMTVDTSTNTAYMELSSLRSEDTAVYYCASRDYDYDGRYFDYWGQGTLVTVSSGGGGSGGGGSGGGGSGGDIQMTQSPSSLSASVGDRVTITCSASSSVTYMYWYQQKPGKAPKLLIYDTSNLASGVPSRFSGSGSGTDYTFTISSLQPEDIATYYCQQWSSHIFTFGQGTKVEIK
